Data: patent publication US20250346673A1 (DUALITY BIOLOGICS SUZHOU, published 2025)
Where a chain is given by its changes, count along the chain named. Each block holds one binder with its values, some of them ahead of it.

How the values were obtained:
[1] = biological target: T1, human BDCA2 (human, UniProt Q8WTT0 1-213); assay: FACS, CHOK1-humanBDCA2 cells
T1 construct: whole, on cells; also called hBDCA2; Blood dendritic cell antigen 2
T1 sequence (looked up): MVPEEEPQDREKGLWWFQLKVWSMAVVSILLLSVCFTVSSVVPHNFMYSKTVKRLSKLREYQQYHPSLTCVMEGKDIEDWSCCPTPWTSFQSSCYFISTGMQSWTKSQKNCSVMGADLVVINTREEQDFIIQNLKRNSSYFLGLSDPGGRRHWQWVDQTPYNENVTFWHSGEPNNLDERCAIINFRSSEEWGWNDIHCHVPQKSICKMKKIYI
Method: (§1) The cells were recovered and resuspended to 2×10⁶/mL with FACS buffer (PBS+2% FBS). The resuspended cells were added to 3799 cell plates at 100 μL/well, and the supernatant was discarded after centrifugation at 300 g. […] The cells were incubated at 4° C. for 1 h. The incubated cells were centrifuged at […] for 5 min and washed twice with FACS buffer. 100 μL Goat anti-Human IgG (H+L) Cross-Adsorbed Secondary Antibody, Alexa Fluor 488 (Sigma, A11013; 1:1000) secondary antibody was added, washed twice with FACS buffer after incubation at 4° C. for 1 h. The cells were resuspended with PBS, then the fluorescence signal of antibodies bound to cell surface was analyzed with FACS (BD FACS CantoTM II) instrument and curves were fitted with GraphPad Prism6 to calculate EC₅₀ values for antibodies binding to BDCA2 antigen.

[2] = biological target: T2, cynomolgus BDCA2 (cynomolgus monkey, UniProt A0A2K5UWP4 1-212); assay: FACS, 293F-cynoBDCA2 cells
T2 construct: whole, on cells; also called Cyno BDCA2; cynoBDCA2
T2 sequence: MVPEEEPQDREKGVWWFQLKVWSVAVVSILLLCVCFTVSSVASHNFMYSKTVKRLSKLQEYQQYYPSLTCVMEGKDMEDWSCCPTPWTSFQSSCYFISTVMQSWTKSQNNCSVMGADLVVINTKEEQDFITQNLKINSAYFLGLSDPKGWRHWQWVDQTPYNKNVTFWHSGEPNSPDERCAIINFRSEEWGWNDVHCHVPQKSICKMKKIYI

[3] = biological target: T1, human BDCA2; assay: FACS on CHOK1-hBDCA2 cells; EC50 table under the plot, unit from the x axis (nM)
Method: (§2) The cells were recovered and resuspended to 2×10⁶/mL with FACS buffer (PBS+2% FBS). The cells were added to 3799 cell plates (Corning) at 100 μL/well, and the supernatant was discarded after centrifugation at 300 g. The antibodies were serially diluted with FACS buffer (Id.), the diluted antibodies were added to centrifuged cells and the cells were resuspended. The cells were incubated at 4° C. for 1 h. The incubated cells were centrifuged at 300 g for 5 min and washed twice with FACS buffer. 100 μL […] anti-Human IgG (H+L) Cross-Adsorbed Secondary Antibody-Alexa Fluor 488 (Sigma, A11013; 1:1000) secondary antibody was added, washed twice with FACS buffer after incubation at 4° C. for 1 h, resuspended with PBS, analyzed with FACS (BD FACS CantoTM II) instrument and curve fitted with GraphPad Prism6, and EC₅₀ values were calculated.

[4] = biological target: T1, human BDCA2; assay: cell-based or functional assay
[5] = biological target: T2, cynomolgus BDCA2; assay: FACS, 293F-cynoBDCA2 cells; remark: listed apart in the source
Method: as §1

[6] = biological target: T1, human BDCA2; assay: FACS, CHOK1-humanBDCA2 cells; remark: listed apart in the source
Method: as §1

[7] = biological target: T1, human BDCA2; assay: cell-based or functional assay; remark: listed apart in the source
[8] = biological target: T1, human BDCA2; assay: FACS on CHOK1-hBDCA2 cells; EC50 table beside the plot, unit from the x axis (nM) [continued) c.]
Method: as §2

[9] = biological target: T3, Recombinant Human BDCA2 (human, UniProt Q8WTT0 45-213, limits assumed); assay: SPR (BIAcore), antibody captured by anti-human IgG (Fc), hBDCA2 as analyte, 1:1 model
T3 construct: also called hBDCA2 (SPR analyte); human BDCA2 antigen
T3 sequence (looked up): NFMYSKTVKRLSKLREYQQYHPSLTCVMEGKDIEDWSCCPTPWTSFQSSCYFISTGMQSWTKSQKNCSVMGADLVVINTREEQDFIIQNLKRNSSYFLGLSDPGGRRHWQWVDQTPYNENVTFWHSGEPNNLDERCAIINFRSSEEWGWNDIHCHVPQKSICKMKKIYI
Method: Then 1 M ethanolamine was injected at 10 μL/min flow rate for 420 seconds, and the excess active carboxyl groups on chip were blocked. The humanized antibodies were injected into a detection channel flow cell at flow rate of 10 μL/min for 60 s for capture after diluting to 1 μg/mL using running buffer. […] The sample hBDCA2 to be tested of each concentration gradient was injected into the detection channel at 30 μL/min flow rate, two samples at 0 concentration were used to remove background signal. The binding and dissociation times between antigen and antibody were 180 and 400 sec, respectively. An analysis of data was performed using Biacore Insight Evaluation Software (Version 2.0. 15.12933). A 1:1 binding model was selected for curve fitting and kinetic parameters were calculated after subtraction of signal of the reference channel (flow cell 1) and at 0 concentration.

B1: Hu005-07 (antibody, IgG1, V domains shown)
VH: QVQLQESGPGLVKPSETLSLTCTVSGGSITNYGVHWIRQPPGKGLEWIGVIWSGESTDYDAAFISRVTISKDNSKNQVSLKLSSVTAADTAVYYCARRRSHYYGYVMDYWGQGTTVTVSS
VL: DIVLTQSPASLAVSPGQRATITCKASQSIDYDAIGYLNWYQHKPGQPPKLLIYAASNLESGVPARFSGSGSGTDFTLTINPVEANDTANYYCQQSNEDPPTFGQGTKLEIK
notes: Humanized IgG1; also called hu005-07(BM5)
EC50 [1]: 2 nM
binding result [2]: binds

B2: Hu005-24 (antibody, IgG1, V domains shown)
VH: B1 VH with E6Q, I29L
VL: DIQMTQSPSSLSASVGDRVTITCKASQSIDYDAIGYLNWYQQKPGKAPKLLIYAASNLESGVPSRFSGSGSGTDFTLTISSLQPEDFATYYCQQSNEDPPTFGQGTKLEIK
notes: Humanized IgG1; also called hu005-24(BM6)
EC50 [1]: 1.9 nM
binding result [2]: binds

B3: Hu005-04 (antibody, human IgG1, kappa, V domains shown)
VH: B1 VH with E6Q, I29L
VL: DIVLTQSPASLAVSPGQRATITCKASQSIDYDAIGYLNWYQQKPGQPPKLLIYAASNLESGVPARFSGSGSGTDFTLTINPVEANDTANYYCQQSNEDPPTFGQGTKLEIKR
notes: Humanized IgG1; also called hu005-04(BM6)
EC50 [1]: 2.3 nM
binding result [2]: binds

B4: Hu005-03 (antibody, IgG1, V domains shown)
VH: B1 VH
VL: B1 VL with H42Q
notes: Humanized IgG1; also called hu005-03(BM4)
EC50 [1]: 2.1 nM
binding result [2]: binds

B5: Hu005-08 (antibody, IgG1, V domains shown)
VH: B1 VH with E6Q, I29L
VL: B1 VL
notes: Humanized IgG1; also called hu005-08(BM7)
EC50 [1]: 2.3 nM
binding result [2]: binds

Results, then the binder that gave them:

EC50 [3]: 0.977 nM
B6: mab016c (antibody, V domains shown)
VH: QVQLKQSGPGLVQPSQSLSITCTVSGFSLTSYGVHWVRQSPGKGLEWLGVIWSGESTDYDAAFISRLSISKDNSKSQVFFRMNSLQADDSAIYYCARRRSHYYGYVMDYWGQGTSVTVSS
VL: DIVLTQSPASLAVSLGQRATISCKASQSVDYDGVGYLNWYQHKPGQPPKLLIYAASNLESGIPARFSGSGSGTDFTLNIHPVEEEDAATYYCQQSNEDPPTFGSGTKLEIK

IC50, inhibition of IFNα secretion, CpG-A stimulated human PBMC [4]: 0.00836 nM
EC50 [3]: 0.964 nM
EC50 [1]: 2.2 nM
B7: mab005c (antibody, V domains shown)
VH: B6 VH with S31N, R81K
VL: B6 VL with V29I, V34I

IC50, inhibition of IFNα secretion, CpG-A stimulated human PBMC [4]: 0.00833 nM
EC50 [5]: 0.56 nM
EC50 [6]: 0.26 nM
EC50 (nM), inhibition of CpG-A stimulated IFNα release from human PBMC [7]: 0.02 nM
EC50 [8]: 0.277 nM
Kd [9]: 0.11 nM
koff [9]: 7.67e-05 s⁻¹
kon [9]: 698000 M⁻¹ s⁻¹
B8: mab033c (antibody, V domains shown)
VH: EVQMVESGGDLVKPGDSLKLSCAASGFTFRSYGMSWVRQTPDKRLEWVATISSGDSYTYYPDSVKGRFTISRDNAKNTLYLQMSSLKSEDTALYYCARQIYYDYAYYFDFWGQGTTLTVSS
VL: DIVLTQSPASLAVSLGQRATISCRASESVSFRTSHLMHWYQQKPGQPPKLLIYGASNLESGVPARFSGSGSETDFTLNIHPVEEEDAAAYFCQQSIEDPPTFGGGTKLEIK

EC50 [3]: 1.61 nM
B9: mab002c (antibody, V domains shown)
VH: QIQLVQSGPELKKPGETVKISCRASGYSFTDYSMHWVKQAPGKGLKWVGWINTETGEPTYADDFKGRFALSLETSATSAYLQINNLKNEDTATYFCARGGDGFPYWYFNVWGAGTTVTVSS
VL: DIVLTQSPTSLAVSLGQRTNISCRASQSVSTSSNSYIHWYQQKPGQPPKLLIKYASNLDSGVPARFSGSGSGTDFTLNIHPVEEEDTSTYYCQHSWEIPFTFGSGTKLEIK
